{"source": "patent US20260092113A1", "about": "(Sanofi, published 2026)", "binders": {"B1": {"name": "bispecific antibody L1 (anti-CD28/anti-OX40) (bispecific antibody, human IgG1, kappa, L234A L235A)", "light": "not shown", "heavy": "not shown", "chain": "DVQLVESGGGVVQPGGSLRLSCAASGSFFSIDTMDWYRQAPGKQRELVTGVTSGGLTNYADSVKGRFTISIDNAKNTVYLQMNSLRPEDTALYYCSARIRTSGGGGWSTYWGQGTLVTVSSGGGGSDKTHTCPPCPAPEAAGGPSVFLFPPKPKDTLMISRTPEVTCVVVDVSHEDPEVKFNWYVDGVEVHNAKTKPREEQYNSTYRVVSVLTVLHQDWLNGKEYKCKVSNKALPAPIEKTISKAKGQPREPQVCTLPPSRDELTKNQVSLSCAVKGFYPSDIAVEWESNGQPENNYKTTPPVLDSDGSFFLVSKLTVDKSRWQQGNVFSCSVMHEALHNRFTQKSLSLSPG", "notes": "also called L1 & L4 OX40 arm x L1 & L3 & L2 CD28 arm"}}, "target": "T1, human OX40 on the surface of target cells (HEK293 cells expressing human OX40, jurkat cells engineered to … (human, UniProt P43489 29-277))", "T1 construct": "whole, on cells; also called huOX40", "T1 sequence (looked up)": "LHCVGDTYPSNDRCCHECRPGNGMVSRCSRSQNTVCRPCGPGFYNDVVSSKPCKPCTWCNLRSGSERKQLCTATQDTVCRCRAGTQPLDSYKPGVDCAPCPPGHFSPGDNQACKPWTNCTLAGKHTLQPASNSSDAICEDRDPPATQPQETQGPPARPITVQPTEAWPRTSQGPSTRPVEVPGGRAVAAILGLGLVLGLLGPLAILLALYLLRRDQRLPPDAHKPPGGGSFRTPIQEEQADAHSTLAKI", "assay": "flow cytometry on HEK293 cells expressing human OX40, anti-human IgG Fc PE, MFI", "data": [{"binder": "B1", "values": [{"measurement": "EC50 (read off the curve)", "value": "~0.8", "unit": "nM"}]}]}
